The results in this text go back to paper PMC3267046.

As usually defined, the Km is the concentration of substrate that gives half-maximal velocity. Usually kcat stands for the number of substrate molecules converted per active site and unit of time at saturation. As usually defined, the kcat/Km is the second-order rate constant that governs catalysis at low substrate concentration.

Substrate in this data set: O=[N+]([O-])c1cn2c(n1)OC[C@@H](OCc1ccc(OC(F)(F)F)cc1)C2
As to the kind of experiment: purified protein. The format is biochemical, Nocardia farcinica.

B1: (Nocardia farcinica IFM 10152) (protein)
chain: MRMSSTGEYVPSPSEWIGNQVAQYEASDGAEAGEFDGRPLVILTTVGRKTGALRKTPVMRVEHDGRYAVVASQGGAPTHPAWYFNLVADPRAQLRDKDAVLSVVARELAGPERAEWWERAVRAYPTYQEYQDNTRRLIPVLLLEPGR
With B1, the Km was found to be 21.9 µM, the kcat amounted to 0.33 ± 0.08 s⁻¹ and the specificity constant (kcat/Km) was found to be 16000 ± 2000 M⁻¹ s⁻¹.
